{"source": "IntAct's records for PubMed 23219551", "parents": {"B1": {"name": "DNA ligase 4 (Homo sapiens), P49917 (parent)", "chain": "MAASQTSQTVASHVPFADLCSTLERIQKSKGRAEKIRHFREFLDSWRKFHDALHKNHKDVTDSFYPAMRLILPQLERERMAYGIKETMLAKLYIELLNLPRDGKDALKLLNYRTPTGTHGDAGDFAMIAYFVLKPRCLQKGSLTIQQVNDLLDSIASNNSAKRKDLIKKSLLQLITQSSALEQKWLIRMIIKDLKLGVSQQTIFSVFHNDAAELHNVTTDLEKVCRQLHDPSVGLSDISITLFSAFKPMLAAIADIEHIEKDMKHQSFYIETKLDGERMQMHKDGDVYKYFSRNGYNYTDQFGASPTEGSLTPFIHNAFKADIQICILDGEMMAYNPNTQTFMQKGTKFDIKRMVEDSDLQTCYCVFDVLMVNNKKLGHETLRKRYEILSSIFTPIPGRIEIVQKTQAHTKNEVIDALNEAIDKREEGIMVKQPLSIYKPDKRGEGWLKIKPEYVSGLMDELDILIVGGYWGKGSRGGMMSHFLCAVAEKPPPGEKPSVFHTLSRVGSGCTMKELYDLGLKLAKYWKPFHRKAPPSSILCGTEKPEVYIEPCNSVIVQIKAAEIVPSDMYKTGCTLRFPRIEKIRDDKEWHECMTLDDLEQLRGKASGKLASKHLYIGGDDEPQEKKRKAAPKMKKVIGIIEHLKAPNLTNVNKISNIFEDVEFCVMSGTDSQPKPDLENRIAEFGGYIVQNPGPDTYCVIAGSENIRVKNIILSNKHDVVKPAWLLECFKTKSFVPWQPRFMIHMCPSTKEHFAREYDCYGDSYFIDTDLNQLKEVFSGIKNSNEQTPEEMASLIADLEYRYSWDCSPLSMFRRHTVYLDSYAVINDLSTKNEGTRLAIKALELRFHGAKVVSCLAEGVSHVIIGEDHSRVADFKAFRRTFKRKFKILKESWVTDSIDKCELQEENQYLI"}}, "data": [{"variants_of": "B1", "settings": "with dcr1c_human DCLRE1C", "values": [{"variant": "D18H", "effect of a mutation on the interaction": "decreasing interaction strength"}, {"variant": "V14A", "effect of a mutation on the interaction": "decreasing interaction strength"}, {"variant": "F42A;F49A", "effect of a mutation on the interaction": "disrupting interaction strength"}, {"variant": "F42A", "effect of a mutation on the interaction": "disrupting interaction strength"}, {"variant": "F49A", "effect of a mutation on the interaction": "disrupting interaction strength"}]}]}
